Key:
Format in all cases: biochemical
[1] = molecular target: T1, human G34 protein (Homo sapiens, UniProt Q8NCR0); assay: Screening of GalNAc transferase activity (acceptor substrate specificity, monosaccharide acceptors); conditions: 10 nmol acceptor, MES pH 6.5, MnCl2 10 mM, 37° C. 16 hours
T1 construct: made in house; host or cells: Sf21 insect cells (baculovirus, pFBIF-G34A)
T1 sequence (Q8NCR0 36-500): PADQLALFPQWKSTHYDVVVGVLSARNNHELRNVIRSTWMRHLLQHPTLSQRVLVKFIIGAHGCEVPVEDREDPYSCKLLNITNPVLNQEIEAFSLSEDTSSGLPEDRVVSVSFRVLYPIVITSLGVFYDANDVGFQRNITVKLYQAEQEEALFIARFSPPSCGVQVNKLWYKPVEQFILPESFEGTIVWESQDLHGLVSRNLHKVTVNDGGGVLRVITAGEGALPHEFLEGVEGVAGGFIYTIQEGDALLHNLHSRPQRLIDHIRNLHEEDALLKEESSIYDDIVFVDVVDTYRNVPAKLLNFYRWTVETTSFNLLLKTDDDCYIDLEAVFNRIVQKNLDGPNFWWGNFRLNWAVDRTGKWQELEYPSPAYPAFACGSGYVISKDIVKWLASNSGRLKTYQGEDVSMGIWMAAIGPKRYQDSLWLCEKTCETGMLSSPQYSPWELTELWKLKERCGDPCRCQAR
Source text: The following reaction system was used for examining the G34 enzyme protein for its acceptor substrate specificity in its GalNAc transfer activity.
In the reaction solutions shown below, each of the following was used at 10 nmol as an acceptor substrate: pNp-α-Gal, oNp-β-Gal, Bz-α-GlcNAc, pNp-β-GlcNAc, Bz-α-GalNAc, pNp-β-GalNAc, pNp-α-Glc, pNp-β-Glc, pNp-β-GlcA, pNp-α-Fuc, pNp-α-Xyl, pNp-β-Xyl and pNp-α-Man (all purchased from SIGMA), wherein “Gal” represents a D-galactose residue, “Xyl” represents a D-xylose residue, “Fuc” represents a […] residue, “Man” represents a D-mannose residue and “GlcA” represents a glucuronic acid residue.
Each reaction solution was prepared as follows (final concentrations in parentheses): each substrate (10 nmol), MES (2-morpholinoethanesulfonic acid) (pH 6.5, 50 mM), MnCl2 (10 mM), Triton X-100 (trade name) (0.1%), UDP-GalNAc (2 mM) and UDP-[^14C]GlcNAc (40 nCi) were mixed and supplemented with 5 μl G34 enzyme solution, followed by dilution with H2O to a total volume of 20 μl (see Table 1).
The above reaction mixtures were each reacted at 37° C. for 16 hours. After completion of the reaction, 200 μl H2O was added and each mixture was lightly centrifuged to obtain the supernatant. […] The eluate was mixed with 5 ml liquid scintillator ACSII (Amersham Biosciences) and measured for the amount of radiation with a scintillation counter (Beckman Coulter).

[2] = molecular target: T1, human G34 protein; assay: Optimum buffer and optimum pH for GalNAc transferase activity of G34; conditions: acceptor pNp-β-GlcNAc
Protocol: The following reaction system was used for examining the optimum buffer and pH for the GalNAc transferase activity of G34. The acceptor substrate used was pNp-β-GlcNAc.
Any one of the following buffers was used (final concentrations in parentheses): MES (2-morpholinoethanesulfonic acid) buffer (pH 5.5, 5.78, 6.0, 6.5 and 6.75, 50 mM), sodium cacodylate buffer (pH 5.0, 5.6, 6.0, 6.2, 6.6, 6.8, 7.0, 7.2, 7.4 and 7.5, 25 mM) and N-[2-hydroxyethyl]piperazine-N′-[2-ethanesulfonic acid](HEPES) buffer (pH 6.75, 7.00, 7.30, 7.40 and 7.50, 14 mM). The substrate (10 nmol), MnCl2 (10 mM), Triton CF-54 (trade name) (0.3%), UDP-GalNAc (2 mM) and […] (40 nCi) were mixed and supplemented with 5 μl G34 enzyme solution, followed by dilution with H2O to a total volume of 20 μl.
The above reaction mixtures were each reacted at 37° C. for 16 hours. After completion of the reaction, 200 μl H2O was added and each mixture was lightly centrifuged to obtain the supernatant. The supernatant was passed through a Sep-Pak plus C18 Cartridge (Waters), which had been washed once with 1 ml methanol and twice with 1 ml H2O and then equilibrated, to allow the substrate and product in the supernatant to adsorb to the cartridge. After washing the cartridge twice with 1 ml H2O, the adsorbed substrate and product were eluted with 1 ml methanol. The eluate was mixed with 5 ml liquid scintillator ACSII (Amersham Biosciences) and measured for the amount of radiation with a scintillation counter (Beckman Coulter).

[3] = molecular target: T1, human G34 protein; assay: Time course of G34 enzymatic activity with Bz-β-GlcNAc as acceptor
[4] = sodium cacodylate buffer pH 5.0
[5] = sodium cacodylate buffer pH 5.6
[6] = sodium cacodylate buffer pH 6.0
[7] = sodium cacodylate buffer pH 6.2
[8] = sodium cacodylate buffer pH 6.6
[9] = sodium cacodylate buffer pH 6.8
[10] = sodium cacodylate buffer pH 7.0
[11] = sodium cacodylate buffer pH 7.2
[12] = sodium cacodylate buffer pH 7.4

CC(=O)N[C@H]1[C@H](Oc2ccc([N+](=O)[O-])cc2)O[C@H](CO)[C@@H](O)[C@@H]1O [pNp-β-GlcNAc]
GalNAc transfer to acceptor substrate [1]: ability to transfer GalNAc to pNp-β-GlcNAc

B1: G34: human β1,3-N-acetyl-D-galactosaminyltransferase protein (SEQ ID NO: 2), expressed FLAG-tagged from amino acid 36 to the C-terminal end (protein, listed as Homo sapiens)
chain: T1 sequence (Q8NCR0 36-500)
modifications: FLAG tag
+ (amount of radiation) ([2]; HEPES buffer pH 6.75): 4894 | HEPES (+ minus −) ([2]; HEPES buffer pH 6.75): 4745 | + (amount of radiation) ([2]; HEPES buffer pH 7.00): 4912 | HEPES (+ minus −) ([2]; HEPES buffer pH 7.00): 4791 | + (amount of radiation) ([2]; HEPES buffer pH 7.30): 4294 | HEPES (+ minus −) ([2]; HEPES buffer pH 7.30): 4167 | + (amount of radiation) ([2]; HEPES buffer pH 7.40): 6630 | HEPES (+ minus −) ([2]; HEPES buffer pH 7.40): 6510 | + (amount of radiation) ([2]; HEPES buffer pH 7.50): 6895 | HEPES (+ minus −) ([2]; HEPES buffer pH 7.50): 6655 | + (amount of radiation) ([2]; MES buffer pH 5.50): 3735 | MES (+ minus −) ([2]; MES buffer pH 5.50): 3538 | + (amount of radiation) ([2]; MES buffer pH 5.78): 3755 | MES (+ minus −) ([2]; MES buffer pH 5.78): 3571 | + (amount of radiation) ([2]; MES buffer pH 6.00): 2514 | MES (+ minus −) ([2]; MES buffer pH 6.00): 2373 | + (amount of radiation) ([2]; MES buffer pH 6.50): 1981 | MES (+ minus −) ([2]; MES buffer pH 6.50): 1247 | + (amount of radiation) ([2]; MES buffer pH 6.75): 3289 | MES (+ minus −) ([2]; MES buffer pH 6.75): 3153 | + (amount of radiation) [2, 4]: 6042 | Sodium cacodylate (+ minus −) [2, 4]: 5838 | + (amount of radiation) [2, 5]: 3353 | Sodium cacodylate (+ minus −) [2, 5]: 3194 | + (amount of radiation) [2, 6]: 2689 | Sodium cacodylate (+ minus −) [2, 6]: 2429 | + (amount of radiation) [2, 7]: 907 | Sodium cacodylate (+ minus −) [2, 7]: 769 | + (amount of radiation) [2, 8]: 1093 | Sodium cacodylate (+ minus −) [2, 8]: 957 | + (amount of radiation) [2, 9]: 2488 | Sodium cacodylate (+ minus −) [2, 9]: 2230 | + (amount of radiation) [2, 10]: 4965 | Sodium cacodylate (+ minus −) [2, 10]: 4706 | + (amount of radiation) [2, 11]: 4377 | Sodium cacodylate (+ minus −) [2, 11]: 4068 | + (amount of radiation) [2, 12]: 4930 | Sodium cacodylate (+ minus −) [2, 12]: 4626 | Area (%) ([3]; reaction time 1 hour): 0% | Area (%) ([3]; reaction time 2 hours): 2.388% | Area (%) ([3]; reaction time 4 hours): 6.195% | Area (%) ([3]; reaction time 16 hours): 13.719%

Source: patent US8431365B2, “β1,3-N-acetyl-D-galactosamine transferase protein, nucleic acid encoding the same and method of examining canceration using the same” (National Institute of Advanced Industrial Science and …, priority 2003, dated 2013)
